19 molecules from patent US20060148715A1, “Structural requirements for STAT3 binding and recruitment to phosphotyrosine ligands” (BAYLOR COLLEGE OF MEDICINE, priority 2004, published 2006) can be followed below.

Assay [1] deals with T1, wild type Stat3 (Homo sapiens, UniProt P40763).
T1 construct: made in house; host or cells: Sf9 insect cells (baculovirus, pFastBac1)
The assay can be described thus: Mirror resonance affinity assay (resonant mirror biosensor). Type of assay: binding. The note with it: for Kd: wild type Stat3 binding to G-CSFR phosphododecapeptides, ratio kdiss/kass, read-out: KD. Here is the method:
(§1) Kinetics experiments were performed using an lasys Auto+ resonant mirror biosensor (Affinity Sensor, Paramus, N.J.) (see Sadowski et. al, 1986). Briefly, two-welled cuvettes coated on the bottom of each well with biotin were purchased from Affinity Sensor and prepared for immobilization of biotinylated peptides by coating each surface with 0.04 mg/ml NeutrAvidin (Pierce) and washing with PBS-T (20 mM Na Phosphate, 0.05% Tween-20). Biotinylated peptide (5 μg) was added into each well—experimental peptide to one well and control peptide to the other—and change in arc seconds monitored simultaneously in both wells using the biosensor until stable followed by washing with PBS-T. Real-time binding of Stat3 was conducted at 25° C. at a stir speed of 70 for 10 min starting at the lowest concentration of Stat3. The wells were washed out with three changes of 60 μl PBS-T, and dissociation was allowed to proceed for 5 min. Each well bottom was regenerated by washing with […] of 100 mM formic acid for 2 min and equilibrated with PBS-T for the next round of association assay. Data were collected automatically and analyzed with the FASTplot and GraFit software (see Sheinerman et. al, 2003).
(§2) Mirror resonance affinity assay. Two cells of a biotin-coated cuvette pretreated with saturating amounts of NeutrAvidin. One well of the cuvette was pretreated with biotinylated phosphopeptide based on Y1068 (pY1068, left panel), while the other well was pretreated with biotinylated non-phosphorylated peptide Y1068 (Y1068, right panel) as a control for non-specific binding. Wild type or mutated Stat3 protein was added in the concentrations indicated to each of the two cells and mirror resonance measurements recorded continuously for 10 min as shown.
To obtain quantitative kinetic information about the binding of Stat3 to G-CSFR Y704 and Y744 including association rates (kass), disassociation rates (kdiss) and dissociation equilibrium constants (KD), real-time affinity measurements using a mirror resonance biosensor were performed. The biosensor exploits surface plasmon resonance to measure in real time the alteration in the angle of a laser light reflected from a surface upon which binding events are occurring. Biotinylated peptides were immobilized onto the bottom surface of cuvette wells pre-coated with NeutrAvidin. The interaction of peptides with Stat3 added at different concentrations was measured in real time as altered deflection of a laser light striking the bottom surface of the cuvette; the alterations in the deflection angle measured in arc seconds was analyzed with GraFit software. […] The slightly lower KD for Y704 vs. Y744 is attributable to a faster association rate of Stat3 binding to this phosphododecapeptide.

Assay [2] has as its target T2, Stat3-3M (Homo sapiens, UniProt P40763, E638L/Y640F/Y657F).
T2 construct: made in house; host or cells: Sf9 insect cells (baculovirus, pFastBac1)
The assay is described as above. The conditions noted are these: Stat3-3M binding to G-CSFR phosphododecapeptides; ratio kdiss/kass; read-out: KD. The class given is binding. As to the method: as §1, §2

Assay [3] has as its target pY744 phosphododecapeptide (G-CSFR) (human). Description: mirror resonance biosensor, biotinylated peptide on NeutrAvidin, Stat3 in solution.
The target of assay [4] is pY704 phosphododecapeptide (G-CSFR) (human). Described as above.
The target in assay [5] is pY1068 phosphododecapeptide (EGFR). Described as above.
Assay [6] addresses T3, Stat3-3M (human, UniProt P40763 1-770, limits assumed). Description: peptide pull-down: biotinylated peptide on NeutrAvidin agarose, purified His-tagged Stat3 protein added, bound protein immunoblotted with Stat3 mAb.
For assay [7], the target named is T4, wild type Stat3 (recombinant human Stat3alpha with N-terminal 6-histidine tag) (human, UniProt P40763 1-770).
T4 construct: Expressed in Sf9 cells and purified on Ni-NTA for peptide assays; expressed from pcDNA3.1 in 293T cells for the G-CSFR co-immunoprecipitation; also called WT; purified Stat3
T4 sequence (P40763 other isoform, or with tags, fused parts or gaps limits assumed): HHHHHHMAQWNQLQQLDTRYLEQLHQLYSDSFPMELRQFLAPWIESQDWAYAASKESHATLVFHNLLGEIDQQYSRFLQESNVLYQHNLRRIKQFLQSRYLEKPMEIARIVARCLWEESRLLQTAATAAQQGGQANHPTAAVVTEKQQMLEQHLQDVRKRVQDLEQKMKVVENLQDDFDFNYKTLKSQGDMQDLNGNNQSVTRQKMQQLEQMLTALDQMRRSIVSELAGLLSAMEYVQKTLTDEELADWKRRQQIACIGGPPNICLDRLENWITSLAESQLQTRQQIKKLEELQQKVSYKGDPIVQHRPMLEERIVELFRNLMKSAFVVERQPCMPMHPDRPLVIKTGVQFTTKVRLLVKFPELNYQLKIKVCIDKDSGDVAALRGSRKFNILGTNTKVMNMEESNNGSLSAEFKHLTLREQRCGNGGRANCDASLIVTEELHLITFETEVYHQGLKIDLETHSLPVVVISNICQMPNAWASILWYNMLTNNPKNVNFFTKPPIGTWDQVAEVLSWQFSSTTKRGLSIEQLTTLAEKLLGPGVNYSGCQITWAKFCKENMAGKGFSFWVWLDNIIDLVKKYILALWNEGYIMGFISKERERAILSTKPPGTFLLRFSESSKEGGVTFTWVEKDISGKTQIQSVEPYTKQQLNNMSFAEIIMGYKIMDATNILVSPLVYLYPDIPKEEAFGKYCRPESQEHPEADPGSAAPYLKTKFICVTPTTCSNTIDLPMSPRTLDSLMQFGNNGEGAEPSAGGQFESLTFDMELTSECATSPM
The assay is described as above.

Assay [8] concerns the target T5, Stat3-E638P (human, UniProt P40763 1-770).
T5 construct: Produced in Sf9 cells; CD spectrum essentially identical to wild type
Described as above.

Assay [9] concerns the target T4, wild type Stat3 (recombinant human …). Described as above. The source holds these as a separate data set.
The target in assay [10] is T5, Stat3-E638P. The assay is described as above. The source holds these as a separate data set.
Assay [11] deals with T4, wild type Stat3 (recombinant human …). The assay can be described thus: mirror resonance biosensor: biotinylated peptide on NeutrAvidin-coated cuvette, Stat3 protein in solution, association followed for about 10 min. Here is the method: as §1, with “Biotinylated peptide (5 μg) was added into each well—experimental peptide to one well and control peptide to the other—and change in arc seconds monitored simultaneously in both wells using the biosensor until stable followed by washing with PBS-T. Real-time binding of Stat3 was conducted at 25° C. at a stir speed of 70 for 10 min starting at the lowest concentration of Stat3.” left out
(§3) Mirror resonance affinity assay. Two cells of a biotin-coated cuvette pretreated with saturating amounts of NeutrAvidin. One well of the cuvette was pretreated with biotinylated phosphopeptide based on Y1068 (pY1068, left panel), while the other well was pretreated with biotinylated non-phosphorylated peptide Y1068 (Y1068, right panel) as a control for non-specific binding.

The target of assay [12] is T5, Stat3-E638P. The assay is described as above. Here is the method:
as §1, with “Biotinylated peptide (5 μg) was added into each well—experimental peptide to one well and control peptide to the other—and change in arc seconds monitored simultaneously in both wells using the biosensor until stable followed by washing with PBS-T. Real-time binding of Stat3 was conducted at 25° C. at a stir speed of 70 for 10 min starting at the lowest concentration of Stat3.” left out
as §3

In assay [13] the target is T3, Stat3-3M. The assay can be described thus: peptide pull-down: biotinylated peptide on NeutrAvidin agarose, purified His-tagged Stat3 protein added, bound protein immunoblotted with Stat3 mAb. This is another data set of the same source.
Assay [14] concerns the target Stat3-4M (human, UniProt P40763 1-770, limits assumed). Described as above.
For assay [15], the target named is Stat3-6M (human, UniProt P40763 1-770, limits assumed). Described as above.
Chain of Stat3-6M (P40763 other isoform, or with tags, fused parts or gaps limits assumed): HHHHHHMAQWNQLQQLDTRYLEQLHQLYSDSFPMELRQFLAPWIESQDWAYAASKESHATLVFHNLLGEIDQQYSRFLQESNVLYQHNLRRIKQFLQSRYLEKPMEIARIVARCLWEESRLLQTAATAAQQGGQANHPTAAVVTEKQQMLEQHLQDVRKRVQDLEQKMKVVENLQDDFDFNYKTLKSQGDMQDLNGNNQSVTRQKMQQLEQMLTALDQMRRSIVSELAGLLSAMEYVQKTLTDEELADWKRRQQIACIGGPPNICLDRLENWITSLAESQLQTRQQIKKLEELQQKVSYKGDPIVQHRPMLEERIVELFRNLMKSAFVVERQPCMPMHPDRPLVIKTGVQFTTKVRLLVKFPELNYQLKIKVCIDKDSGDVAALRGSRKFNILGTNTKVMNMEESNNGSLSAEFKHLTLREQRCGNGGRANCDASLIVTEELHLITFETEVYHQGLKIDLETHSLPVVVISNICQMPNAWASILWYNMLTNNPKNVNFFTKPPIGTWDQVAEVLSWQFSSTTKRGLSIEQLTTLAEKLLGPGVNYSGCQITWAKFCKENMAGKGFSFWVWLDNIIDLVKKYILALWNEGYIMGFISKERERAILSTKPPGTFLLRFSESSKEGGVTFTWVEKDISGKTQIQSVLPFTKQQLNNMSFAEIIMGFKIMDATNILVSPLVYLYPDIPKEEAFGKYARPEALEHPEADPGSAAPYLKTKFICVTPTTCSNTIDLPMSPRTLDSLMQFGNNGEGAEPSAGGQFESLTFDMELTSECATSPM

Where two headings read alike, the source gives them in different places. Non-standard residues stand in square brackets, D forms with d. Residues, ends and D or L forms follow the SMILES beside them. No end group written: not given here. *: point of attachment. d‑Biotin‑LC = N-terminal biotin (d-Biotin-LC), O=C(CCCC[C@@H]1SC[C@@H]2NC(=O)N[C@@H]21)NCCCCCC(=O)*; Biotin = O=C1N[C@H]2[C@H](CS[C@H]2CCCCC(=O)*)N1; pY = N[C@@H](Cc1ccc(OP(=O)(O)O)cc1)C(=O)O; Ahx = NCCCCCC(=O)O

T5 sequence (P40763 other isoform, or with tags, fused parts or gaps E638P E638P limits assumed): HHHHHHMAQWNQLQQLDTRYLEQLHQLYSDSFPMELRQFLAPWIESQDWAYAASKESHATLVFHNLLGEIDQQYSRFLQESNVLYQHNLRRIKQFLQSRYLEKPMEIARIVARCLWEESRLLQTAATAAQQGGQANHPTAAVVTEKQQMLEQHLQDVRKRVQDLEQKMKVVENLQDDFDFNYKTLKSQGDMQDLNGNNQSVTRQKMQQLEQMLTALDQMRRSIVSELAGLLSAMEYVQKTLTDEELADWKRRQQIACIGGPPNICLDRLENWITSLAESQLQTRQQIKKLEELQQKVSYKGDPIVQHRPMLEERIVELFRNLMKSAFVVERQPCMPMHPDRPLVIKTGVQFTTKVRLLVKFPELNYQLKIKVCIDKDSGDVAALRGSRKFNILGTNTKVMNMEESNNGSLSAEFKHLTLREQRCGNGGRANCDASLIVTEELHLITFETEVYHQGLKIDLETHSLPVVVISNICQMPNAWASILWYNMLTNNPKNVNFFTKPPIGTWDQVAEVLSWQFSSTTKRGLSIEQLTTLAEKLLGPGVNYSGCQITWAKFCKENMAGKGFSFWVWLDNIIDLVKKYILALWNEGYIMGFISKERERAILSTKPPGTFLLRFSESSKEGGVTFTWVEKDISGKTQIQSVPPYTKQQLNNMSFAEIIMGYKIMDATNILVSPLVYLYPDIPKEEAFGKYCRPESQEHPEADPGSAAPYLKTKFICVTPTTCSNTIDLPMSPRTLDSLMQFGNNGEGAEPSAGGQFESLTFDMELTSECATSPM
T1 sequence (P40763 whole entry): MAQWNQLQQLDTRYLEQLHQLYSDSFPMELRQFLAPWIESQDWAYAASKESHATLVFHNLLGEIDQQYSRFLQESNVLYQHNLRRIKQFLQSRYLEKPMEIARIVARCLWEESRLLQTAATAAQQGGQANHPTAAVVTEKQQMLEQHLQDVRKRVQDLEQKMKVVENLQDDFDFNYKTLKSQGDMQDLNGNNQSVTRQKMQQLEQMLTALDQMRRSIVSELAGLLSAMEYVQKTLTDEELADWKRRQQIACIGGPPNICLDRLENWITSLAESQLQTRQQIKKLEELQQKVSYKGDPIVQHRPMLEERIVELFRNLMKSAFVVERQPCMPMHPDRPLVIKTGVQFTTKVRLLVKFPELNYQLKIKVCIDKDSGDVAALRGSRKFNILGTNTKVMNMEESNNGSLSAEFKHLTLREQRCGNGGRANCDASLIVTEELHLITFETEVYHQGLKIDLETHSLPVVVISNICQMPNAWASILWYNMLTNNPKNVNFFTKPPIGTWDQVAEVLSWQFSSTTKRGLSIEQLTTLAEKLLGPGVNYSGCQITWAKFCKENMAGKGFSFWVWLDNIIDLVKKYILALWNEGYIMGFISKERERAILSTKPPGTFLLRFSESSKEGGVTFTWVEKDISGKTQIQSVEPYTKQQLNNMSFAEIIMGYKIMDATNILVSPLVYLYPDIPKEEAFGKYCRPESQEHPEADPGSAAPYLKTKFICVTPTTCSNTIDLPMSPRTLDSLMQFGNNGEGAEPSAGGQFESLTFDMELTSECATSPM
T2 sequence (P40763 whole entry E638L/Y640F/Y657F): as the sequence (P40763 whole entry) above, with E638L, Y640F, Y657F counted along it
T3 sequence (P40763 other isoform, or with tags, fused parts or gaps limits assumed): as the sequence (P40763 other isoform, or with tags, fused parts or gaps E638P E638P limits assumed) above, with P644L, Y646F, Y663F counted along it
Chain of Stat3-4M (P40763 other isoform, or with tags, fused parts or gaps limits assumed): as the sequence (P40763 other isoform, or with tags, fused parts or gaps E638P E638P limits assumed) above, with P644E, Y663F, C693A, S697A, Q698L counted along it

For “LPVPE(pY)INRSVP (LPVPE[pY]INRSVP) [Y1068 Q-to-R PDP]”, in [1] (wild type Stat3), the “Stat3 binding in real-time resonance mirror affinity assay” value is “undetectable”.

As for `CC(C)C[C@H](NC(=O)[C@H](Cc1ccc(OP(=O)(O)O)cc1)NC(=O)[C@H](Cc1c[nH]cn1)NC(=O)CNC(=O)[C@@H]1CCCN1C(=O)CNC(=O)[C@@H]1CCCN1C(=O)CCCCCNC(=O)CCCC[C@@H]1SC[C@@H]2NC(=O)N[C@@H]21)C(=O)N[C@@H](CCCNC(=N)N)C(=O)N[C@@H](CS)C(=O)N[C@@H](CC(=O)O)C(=O)N[C@@H](CO)C(=O)N[C@H](C(=O)O)[C@@H](C)O` [compound 744, PGPGHpYLRCDST] ({Biotin-Ahx}-PGPGH[pY]LRCDST-OH), the dissociation constant (Kd) in [2] was determined as 1060 ± 150 nM; in assay [1] it was 950 nM.

Consider `CC(C)C[C@H](NC(=O)[C@@H](NC(=O)[C@H](Cc1ccc(OP(=O)(O)O)cc1)NC(=O)[C@@H](NC(=O)[C@H](CCC(N)=O)NC(=O)[C@@H](NC(=O)[C@H](CC(C)C)NC(=O)[C@@H](NC(=O)CCCCCNC(=O)CCCC[C@@H]1SC[C@@H]2NC(=O)N[C@@H]21)[C@@H](C)O)C(C)C)[C@@H](C)O)C(C)C)C(=O)N[C@@H](CCC(N)=O)C(=O)NCC(=O)N[C@@H](CC(=O)O)C(=O)N1CCC[C@H]1C(=O)O` [compound 704, TLVQTpYVLQGDP] ({Biotin-Ahx}-TLVQT[pY]VLQGDP-OH), for which the figures for the dissociation constant Kd in assay [2] and in [1] were 1210 nM and 703 nM, respectively.

As to “wild type Stat3 (recombinant human Stat3alpha with N-terminal 6-histidine tag) (from UniProt P40763 1-770)”, the values for the dissociation constant Kd in assay [3], in [4] and in assay [5] were 950 nM, 703 nM and 223 nM, respectively.

B1: Y704 non-phosphorylated dodecapeptide (G-CSFR) (peptide)
peptide: {d‑Biotin‑LC}-TLVQTYVLQGDP
As to B1, the binding result in assay [6], in [7] and in assay [8] was “no binding” throughout.

B2: pY1068-M phosphododecapeptide (EGFR Y1068, +3 Q to M) (peptide)
peptide: {d‑Biotin‑LC}-LPVPE[pY]INMSVP
Turning to B2, the binding result in [9] and in assay [10] was “no binding” in each case.

B3: pY1086 phosphododecapeptide (EGFR) (peptide)
peptide: {d‑Biotin‑LC}-VQNPV[pY]HNQPLN
notes: also called Y1086 PDP; Y1086 phosphopeptide
For B3, in [10], the binding result was “no binding”.

B4: Y1068 non-phosphorylated dodecapeptide (EGFR) (peptide)
peptide: {d‑Biotin‑LC}-LPVPEYINQSVP
notes: also called unphosphorylated Y1068 dodecapeptide
With B4, the binding result in assay [11] is on record as “no binding”; in assay [12], “no binding (tested: 600 nM)”; in assay [13], “no binding”; in assay [14] it was “no binding”; in assay [15], “no binding”.

B5: pY1173 (peptide)
peptide: {d‑Biotin‑LC}-LDNPD[pY]QQDFFP
notes: EGFR-based phosphopeptide; also called pY1173 phosphododecapeptide (EGFR)
In the case of B5, the binding result in assay [10] was “no binding”.

B6: pY764 phosphododecapeptide (G-CSFR) (peptide)
peptide: {d‑Biotin‑LC}-PSPLS[pY]ENLTFQ
With B6, the binding result in assay [7] and in assay [8] was “no binding” throughout.

B7: pY992 (peptide)
peptide: {d‑Biotin‑LC}-TDSNF[pY]RALMDE
notes: EGFR-based control phosphopeptide; also called pY992 phosphododecapeptide (EGFR)
Consider B7, for which the binding result in assay [10] was “no binding”.

B8: pY1068 phosphododecapeptide (EGFR) (peptide)
peptide: LPVPEXINQSVP
modifications: phosphotyrosine at position 6 (EGFR Y1068); N-terminal biotin (d-Biotin-LC)
notes: also called Y1068 PDP; Y1068 phosphopeptide
Regarding B8, the binding result in assay [12] is listed as “no binding (tested: 600 nM)”.

B9: pY744 phosphododecapeptide (G-CSFR) (peptide)
peptide: {d‑Biotin‑LC}-PGPGH[pY]LRCDST
Take B9: the binding result in [8] is listed as “no binding”.

B10: pY1068-L phosphododecapeptide (EGFR Y1068, +3 Q to L) (peptide)
peptide: {d‑Biotin‑LC}-LPVPE[pY]INLSVP
B10: the binding result in assay [9] and in [10] was “no binding” each time.

B11: pY704 phosphododecapeptide (G-CSFR) (peptide)
peptide: {d‑Biotin‑LC}-TLVQT[pY]VLQGDP
Regarding B11, the binding result in assay [8] was “no binding”.

B12: pY1148 (peptide)
peptide: {d‑Biotin‑LC}-VGNPE[pY]LNTVQP
notes: EGFR-based phosphopeptide; also called pY1148 phosphododecapeptide (EGFR)
As for B12, the binding result in assay [10] is recorded as “no binding”.

B13: pY1068-R phosphododecapeptide (EGFR Y1068, +3 Q to R) (peptide)
peptide: {d‑Biotin‑LC}-LPVPE[pY]INRSVP
notes: also called Y1068 Q-to-R PDP
With B13, the binding result in assay [9] and in assay [10] was “no binding” in each case.

B14: pY729 phosphododecapeptide (G-CSFR) (peptide)
peptide: {d‑Biotin‑LC}-SDQVL[pY]GQLLGS
As for B14, the binding result in assay [7] and in assay [8] was “no binding” throughout.

B15: pY1068-E phosphododecapeptide (EGFR Y1068, +3 Q to E) (peptide)
peptide: {d‑Biotin‑LC}-LPVPE[pY]INESVP
As to B15, the binding result in assay [9] and in assay [10] was “no binding” each time.
